# Measured values as given in patent US20110263454A1, “Methods of Identifying Functional Characteristics of Promoters, Transcription Modifying Proteins and Transcription Modulating Agents” (Salk Institute for Biological Studies, priority 2008, published 2011).
# Key:
# [1] = system: mCAR promoter; experiment: NHR-promoter luciferase screen, mCAR promoter; type: cell-based, mouse; details: for luciferase activity normalized to lacZ activity and to a control, mCAR: mCAR promoter-luciferase, CV-1 cells, NHR +/- ligand, control = 1.00; for Luc. act., normalized to lacZ / Normalized Luc. act., normalized to control: mCAR promoter, HR/ligand component
# In short: (§1)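 CV-1 cells were co-transfected with 50 ng NHR (homodimer or NHR/RXR heterodimer), 100 ng promoter-luciferase construct and 50 ng LacZ. Luciferase was normalized to LacZ and to a no-NHR/no-ligand control.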
# [2] = system: mPer1 promoter; experiment: NHR-promoter luciferase screen, mPer1 promoter; type: cell-based, mouse; details: for Luc. act., normalized to lacZ / Normalized Luc. act., normalized to control: Per1 promoter reporter, co-transfected HR, with or without its ligand; for Normalized Luc. act., normalized to control: relative to control; for luciferase activity normalized to lacZ activity and to a control, mPer1: mPer1 promoter-luciferase, CV-1 cells, NHR +/- ligand, control = 1.00
# In short: as §1
# [3] = system: mUCP3 promoter; experiment: NHR-promoter luciferase screen, mUCP3 promoter; type: cell-based, mouse; details: for Normalized Luc. act., normalized to control / Luc. act., normalized to lacZ: mUCP3 promoter reporter; for Normalized Luc. act., normalized to control: HR without or with its ligand, relative to control; for Luc. act., normalized to lacZ: hormone receptor (HR) without or with its ligand; for mUCP3 promoter reporter activity: transcription factor +/- ligand, control = 1.00
# In short: as §1
# [4] = system: Bmal1 promoter; experiment: NHR-promoter luciferase screen, Bmal1 promoter; type: cell-based, mouse; details: for Luc. act., normalized to lacZ / Normalized Luc. act., normalized to control: Bmal1 promoter, HR component without or with ligand; for mBmal1 promoter reporter activity: transcription factor +/- ligand, control = 1.00
# In short: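 Luciferase activity was measured 48 h after transfection, normalized to LacZ and then to a control lacking NHR or ligand. CV-1 cells carried 100 ng Bmal1 reporter, 50 ng NHR construct and 50 ng LacZ.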
# [5] = system: hPPARg1 promoter; experiment: NHR-promoter luciferase screen, hPPARg1 promoter; type: cell-based, human; details: for Luc. act., normalized to lacZ / Normalized Luc. act., normalized to control: PPARG1 promoter, hormone receptor with or without its ligand; for Normalized Luc. act., normalized to control: relative to control; for Results of assays of transcription factor (+/- ligand) with hPPARg1: Table 6d, luciferase activity relative to control (control = 1.00)
# In short: as §1
Molecule,"luciferase activity normalized to lacZ activity and to a control, mCAR [1]","Luc. act., normalized to lacZ [1]","Normalized Luc. act., normalized to control [1]","Luc. act., normalized to lacZ [2]","Normalized Luc. act., normalized to control [2]","luciferase activity normalized to lacZ activity and to a control, mPer1 [2]","Normalized Luc. act., normalized to control [3]","Luc. act., normalized to lacZ [3]",mUCP3 promoter reporter activity [3],"Luc. act., normalized to lacZ [4]","Normalized Luc. act., normalized to control [4]",mBmal1 promoter reporter activity [4],"Luc. act., normalized to lacZ [5]","Normalized Luc. act., normalized to control [5]",Results of assays of transcription factor (+/- ligand) with hPPARg1 [5]
"CTF2: COUP-TF2 (NR2F2), cDNA driver (protein, UniProt P24468 1-414, looked up) COUP transcription factor 2: MAMVVSTWRDPQDEVPGSQGSQASQAPPVPGPPPGAPHTPQTPGQGGPASTPAQTAAGGQGGPGGPGSDKQQQQQHIECVVCGDKSSGKHYGQFTCEGCKSFFKRSVRRNLSYTCRANRNCPIDQHHRNQCQYCRLKKCLKVGMRREAVQRGRMPPTQPTHGQFALTNGDPLNCHSYLSGYISLLLRAEPYPTSRFGSQCMQPNNIMGIENICELAARMLFSAVEWARNIPFFPDLQITDQVALLRLTWSELFVLNAAQCSMPLHVAPLLAAAGLHASPMSADRVVAFMDHIRIFQEQVEKLKALHVDSAEYSCLKAIVLFTSDACGLSDVAHVESLQEKSQCALEEYVRSQYPNQPTRFGKLLLRLPSLRTVSSSVIEQLFFVRLVGKTPIETLIRDMLLSGSSFNWPYMAIQ",0.51,19.3,0.5,346.6,2.4,2.41,0.9,0.6,0.91,29.5,1.9,1.89,43.9,0.6,0.64
"CTF1: COUP-TF1 (NR2F1), cDNA driver (protein, UniProt P10589 1-423, looked up) COUP transcription factor 1: MAMVVSSWRDPQDDVAGGNPGGPNPAAQAARGGGGGAGEQQQQAGSGAPHTPQTPGQPGAPATPGTAGDKGQGPPGSGQSQQHIECVVCGDKSSGKHYGQFTCEGCKSFFKRSVRRNLTYTCRANRNCPIDQHHRNQCQYCRLKKCLKVGMRREAVQRGRMPPTQPNPGQYALTNGDPLNGHCYLSGYISLLLRAEPYPTSRYGSQCMQPNNIMGIENICELAARLLFSAVEWARNIPFFPDLQITDQVSLLRLTWSELFVLNAAQCSMPLHVAPLLAAAGLHASPMSADRVVAFMDHIRIFQEQVEKLKALHVDSAEYSCLKAIVLFTSDACGLSDAAHIESLQEKSQCALEEYVRSQYPNQPSRFGKLLLRLPSLRTVSSSVIEQLFFVRLVGKTPIETLIRDMLLSGSSFNWPYMSIQCS",0.31,11.8,0.3,283.8,2.0,1.97,0.9,0.6,0.93,26.1,1.7,1.67,39.7,0.6,0.58
"CTF3: COUP-TF3 (NR2F6), cDNA driver (protein, UniProt P10588 1-404, looked up) Nuclear receptor subfamily 2 …: MAMVTGGWGGPGGDTNGVDKAGGYPRAAEDDSASPPGAASDAEPGDEERPGLQVDCVVCGDKSSGKHYGVFTCEGCKSFFKRSIRRNLSYTCRSNRDCQIDQHHRNQCQYCRLKKCFRVGMRKEAVQRGRIPHSLPGAVAASSGSPPGSALAAVASGGDLFPGQPVSELIAQLLRAEPYPAAAGRFGAGGGAAGAVLGIDNVCELAARLLFSTVEWARHAPFFPELPVADQVALLRLSWSELFVLNAAQAALPLHTAPLLAAAGLHAAPMAAERAVAFMDQVRAFQEQVDKLGRLQVDSAEYGCLKAIALFTPDACGLSDPAHVESLQEKAQVALTEYVRAQYPSQPQRFGRLLLRLPALRAVPASLISQLFFMRLVGKTPIETLIRDMLLSGSTFNWPYGSGQ",0.29,11.2,0.3,159.0,1.1,1.10,0.8,0.6,0.82,21.2,1.4,1.35,32.5,0.5,0.47
"hMR: Mineralocorticoid Receptor (NR3C2, MR), cDNA driver (protein, UniProt P08235 1-984, looked up) Mineralocorticoid receptor: METKGYHSLPEGLDMERRWGQVSQAVERSSLGPTERTDENNYMEIVNVSCVSGAIPNNSTQGSSKEKQELLPCLQQDNNRPGILTSDIKTELESKELSATVAESMGLYMDSVRDADYSYEQQNQQGSMSPAKIYQNVEQLVKFYKGNGHRPSTLSCVNTPLRSFMSDSGSSVNGGVMRAVVKSPIMCHEKSPSVCSPLNMTSSVCSPAGINSVSSTTASFGSFPVHSPITQGTPLTCSPNVENRGSRSHSPAHASNVGSPLSSPLSSMKSSISSPPSHCSVKSPVSSPNNVTLRSSVSSPANINNSRCSVSSPSNTNNRSTLSSPAASTVGSICSPVNNAFSYTASGTSAGSSTLRDVVPSPDTQEKGAQEVPFPKTEEVESAISNGVTGQLNIVQYIKPEPDGAFSSSCLGGNSKINSDSSFSVPIKQESTKHSCSGTSFKGNPTVNPFPFMDGSYFSFMDDKDYYSLSGILGPPVPGFDGNCEGSGFPVGIKQEPDDGSYYPEASIPSSAIVGVNSGGQSFHYRIGAQGTISLSRSARDQSFQHLSSFPPVNTLVESWKSHGDLSSRRSDGYPVLEYIPENVSSSTLRSVSTGSSRPSKICLVCGDEASGCHYGVVTCGSCKVFFKRAVEGQHNYLCAGRNDCIIDKIRRKNCPACRLQKCLQAGMNLGARKSKKLGKLKGIHEEQPQQQQPPPPPPPPQSPEEGTTYIAPAKEPSVNTALVPQLSTISRALTPSPVMVLENIEPEIVYAGYDSSKPDTAENLLSTLNRLAGKQMIQVVKWAKVLPGFKNLPLEDQITLIQYSWMCLSSFALSWRSYKHTNSQFLYFAPDLVFNEEKMHQSAMYELCQGMHQISLQFVRLQLTFEEYTIMKVLLLLSTIPKDGLKSQAAFEEMRTNYIKELRKMVTKCPNNSGQSWQRFYQLTKLLDSMHDLVSDLLEFCFYTFRESHALKVEFPAMLVEIISDQLPKVESGNAKPLYFHRK",0.77,29.38,0.8,351.9,2.4,2.44,0.7,0.50,0.74,18.2,1.2,1.17,56.4,0.8,0.82
